This note sets out measurements from article PMC11653366 (2024).

The chains are these.
B2: F*-p40 (peptide)
chain: APTYSPPPPP

Common to all, as to assay: fluorescence anisotropy
For assay [1], the target named is T1, F*-PLLP.
T1 chain: LASRPLPLLP

The target in assay [2] is B2.
Assay [3] concerns the target Src SH3 84-145 (Homo sapiens, UniProt P12931).

B1: SrcAbl SH3 84-145 (protein)
chain: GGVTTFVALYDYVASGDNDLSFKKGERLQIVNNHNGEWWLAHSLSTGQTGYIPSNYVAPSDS
For orientation: Kd means the equilibrium constant for the complex coming apart. Read a low Kd as tighter binding. B1: the Kd in assay [1] is 140 µM; in assay [2], 130 µM.

In the case of B2, in assay [3], the Kd is > 1 mM.

B3: AblSrc SH3 SH3 (protein)
chain: PSENDPNLFVALYDFESRTETTLSITKGEKLRVLGYNTEGDWCEAQTKNGQGWVPSNYITPVNSLEK
For the molecule B3, the Kd is > 1000 µM in assay [1] and 210 µM in assay [2].
